Measured values taken from a protein production outcome set (Wang et al. 2014).

Experiment: label from the status in PepcDB records

| Sequence | protein production |
| --- | --- |
| MKTTALRLYGKRDLRLETFDLPEMQEDEILATVVTDSLCLSSWKEANLGENHKKVPDDVATNPIIIGHEFCGDILAVGKKWQHKFQPGQRYVIQANLQLPDRPDCPGYSFPWVGGEATHVVIPNEVMEQDCLLAYDGETYFEGSLVEPLSCVIGAFNANYHLQEGSYNHTMGIRPQGRMLILGGTGPMGLLAIDYALHGPVNPSQLVITDTDNDKLSYARKHYPSEPQTLIHYLNAADAAFDTLMALSGGHGFDDIFVFVPNEGLVTLASSLLATDGCLNFFAGPQDKHFSAPINFYDVHYAFTHYVGTSGGNTDDMRAAVKLIEEKKVQAAKVVTHILGLNAAGETTLELPAVGGGKKLVYTGKYLPLTSLTQIQDQALAAILARHQGIWSGEAEQYLLTHAEAISHD | failed |
| MKTTALRLYGKRDLRLETFDLPEMQEDEILATVVTDSLCLSSWKEANLGENHKKVPDDVTTNPIIIGHEFCGDILAVGKKWQHKFQPGQRYVIQANLQLPDRPDCPGYSFPWVDGEATHVVIPNEVMEQYCLLAYDGETYFEGSLVEPLSCVIGAFNANYHLQEGSYNHTMGIRPQGHTLILGGTGPMGLLAIDYALHGPVNPSLLVITDTDNDKLSYARKHYPSEPQTLIHYLNATDAAFDTLMALSGGHGFDDIFVFVPNEGLVTLASSLLATDGCLNFFAGPQDKHFSAPINFYDVHYAFTHYVGTSGGNTDDMRAAVKLIEEKKVQAAKVVTHILGLNAAGETTLELPAVGGGKKLVYTGKYLPLTSLTQIQDQALAAILARHQGIWSGEVEQYLLAHAEAISHDLEHHHHHH | failed |
| MKTTLIISTYNRPEALSVCLDSVRFQTVMPDEVIVGDDGSTSETKDLIESFKKDFPVPLIHLWQEDKGFRLAMMRNKSVAAATGDYIIEIDGDIFLHNKFVEDHKRLAKPGHYLRGTRVNLGQKLTEEICKSKVNRRIYPWTIGIQNRAETAIHSTPVSNFFADRYKKNVSSGLGCNMSFWRSDFLAINGYDEFFEGWGKEDDDLTHRLQRKGCKKRSLRFAGIVYHLWHGHESMESDQKNAEYFRKNNEKNIVYCENGVSKYLKQELEHHHHHH | not failed |
| MKTTYNRWWKKKVWFGRKDMSYKVIVDSCGEFTPEMKADGGFEHVALGIQIEDTQWTDDDSLKQEELLLKIAESTSCAKTSCPSPERYMESYHCDAERIYVVTLSAELSGSYNSAVLGKNLYEEEYGEKQIHVFNSRSASVGETLIALKVQQCEKAGMTFEEVVESVECYIEEQHTYFVLENLDTLRKNGRLTGIKSLVAGALNIKPIMGSTPQGTICQKEKARGMKKALVKMADCVAADVVNAGDKILAIAHCNCEERAKEVQRLLKERFAVKSSFIVDTSGISTVYANDGGIIVVV | not failed |
| MKTYTLIATAPMGIEAIVAKEVRDLGYDCTVDNGKVVFEGDALAICRANLWLRTADRVKVQAAEFIAKTFDELFEKTKAIDWSAYLPEHASFPVTGKSVKSVLASVPDCQRIVKKAIAEKLKSEYQTQGEWLEETGPEYKIEVSLLKDKAVITLDSSGAGLHKRGYRTGQGEAPLKETLAAALILLTNWTPDRPFVDPFCGSGTIPIEAALIGQNIAPGFNRDFASERWEWIGKEVWDQARLEVEEKANYDQPLSISGYDLDHRMIEIAKANAEEAGLADFIEFKQMQVKDFRTKEEYGVIVGNPPYGERLGEKKAVEAMYKDMGKAFAELDTWSVYMLTSNERFEECYGKKATKKRKLFNGFIKTDYYQYWGKRPPKPNKEK | not failed |
| MKVALGGTFEPLHEGHKKLIDVAIKLGGRDITIGVTSDRMARARIRSVLPFAIRAENVKRYVMRKYGFEPEIVKITNPYGKTLDVDFEYLVVSPETYEMALKINQKREELGKRKITIVKVDWMMAEDGKPISSTRIKRGEID | not failed |
| MKVAVLVGGVGRRIGMEKTEVMLCGKKLIEWVLEKYSPFQTVFVCRDEKQAEKLSSRYEAEFIWDLHKGVGSIAGIHAALRHFGSCVVAAIDMPFVKPEVLEHLYKEGEKAGCDALIPKHDYPEPLLAYYAESAADELERAILQGIRKILVPLERLNVVYYPVEKLRKFDKELISFFNINTPDDLKRAEEICSKMSTEGLLEHHHHHH | not failed |
| MKVCLQCENFFSSADWACPSCGYQPERLNGIEAHASEFAHGGGGFKPEYFSELSRLEAGNFWFRARNELILWALRTYKPNAGAFLEVGCGTGFVLSGIARACPEIALNGSEIFLAGLFHAAKRVPSTHFMQMDARRVPFVEEFDAIGAFDVLEHIEEDETVLAQLHNAIKPSGVLLLTVPQHPRLWSASDDYACHVRRYTRVEIEQKVLTAGFELLRSSSFVTSLLPVMMLSRVLQKRKTKDFDPAGELKINAALNKVFYGLMMLELAGIRLGMNYPVGGSRLVVAKKQSALEHHHHHH | not failed |
| MKVFIAGGRGRVGSLLADNLEAKGIEVVSGGLEDGIDVISGKGLTEALAGVDTIVNVLNTPRFDAEGAISFFEGAINNLTAEGERAGVRHHIVLSIVGVGQGDASEVGYYLGKVAQEKAVRSASIPATIIRATQFQSYIPVLIDQHTVDGKVIAPRSFVQPVELDEVIELLAEAATTLEPGSEVEIAGPDRFYHDDLFRATLADRGDDREVVTVDAEGAPDVMVPRGAYRTGTVRYPITGIPTV | failed |
| MKVGAVVITMGNRPEELRALLDSVAKQDGDPVQVVVVGNGSPVPEVPEGVRTVELPENLGIPGGRNVGIEAFGPGGSDVDILLFLDDDGLLARTDTAELCREAFAADDELGIISFRIADPDTGETQRRHVPRLRASDPMRSSRVTTFLGGANAVRTRVLTQVGGLPDAFFYAHEETDLAWRALDAGWMIDYRSDMVLNHPTTAPSRHAVYHRMVARNRVWLARRNLPALLVPVYLGVWMALTLLRRPSRPALKAWFGGFREGWATPCGPRRPMRWRTVWRLTRLGRPPVI | failed |
| MKVIMTTKVDKASMNIMNKLIENFGFKETEYVFDGNPVYKRGDVLILTTNDEMIYYDYLDREIENQLGFKPEIIAFASRHSSKQKLPALTTHVTGNWGKAMYGGKDESFAVAIPSAMKLSLLKMSELNDLGWTVCYEATHHGPTELEVPSFFIEIGSSEEEWINDRAGEIIAETIIYVLDNYEKGRSKFKVALGIGGGHYAPKQTKRALEGDLAFGHILPKYAQPVSRDVMIKALNRFGEKVEAIYVDWKGSRGETRQLAKSLAQELGLEFIKD | not failed |
| MKVLLDTNIIVDFLSKRPVFFNEAEKIISKCRDGEIIGIVAVHTVSTLFYLLKKYVSPETLRDIFYNLFEIIEIGRADKNSVLEALKNTEFTDFEDGLQYQCALEEFVDCIITRNKKDFFSSKIPVYTPSEFLKSLLEHHHHHH | failed |
| MKVLREDEESEIVKQFLDDNNSVIVDFDPIDLYEAVHPPFSIRLSIDRISAMPLSILRRRAAAFVSDPQTLSKLLNNDIAGKFDFIYDNSNRSWQKYYPFSYYRSINAADLYENIKAYTVLDVREPFELIFGSIANSINIPISELREKWKILERDKKYAVICAHGNRSAAAVEFLSQLGLNIVDVEGGIQSWIEEGYPVVYGRESAED | failed |
| MKVLVFICGEGLGHTSRGIALGRELLAAGHEVYLGAYGYSKEFIERKGYKTVEIPPEIKLVGESGSLNLKRSIISTLKGGNVFGIFKVLSLLKEKKPDIVVSDSYFTGVVASKIRGIPVYLIVNQSNMETFFKNGGIALRTMGGIIKQFYSCIFRRVDRIVIPDFPMPYTVCRLNLAFEEKVSKNLFFSGPLTLKKFDDVKAEVLQKPHVLSLIGGFGYREPIFRKVIEVAKLDKSINYTLLSGPSLNPDVFSNLPENVTIKRFINDQFPYLKASDLVIAPGGHSTIMEALTFGVPVLSFPDINHSEQESNATVVDLAGYGKRLDYSASPEEILRSIKELLKDEKIHQKVEIMKKLSKDLNATATFKELLESNSKRSQKV | failed |
| MKVNETGVEELNPYPDRPGERDCQFYLRTGLCGYGSSCRYNHPTHLPQDVAYYKEELPERIGQPDCEYFLKTGACKYGPTCKYHHPKDRNGAQPVMFNVIGLPMRLGEKPCPYYLRTGTCRFGVACKFHHPQPDNGHSTAYGMSSFPAADLRYASGLTMMSTYGTLPRPQVPQSYVPILVSPSQGFLPPQGWAPYMAASNSMYNVKNQPYYSGSSASMAMAVALNRGLSESSDQPECRFFMNTGTCKYGDDCKYSHPGVRISQPPPSLINPFVLPARPGQPACGNFRSYGFCKFGPNCKFDHPMLPYPGLTMATSLPTPFASPVTTHQRISPTPNRSDSKSLSNGKPDVKKESSETEKPDNGEVQDLSEDASSP | failed |
| MKVNKFITIYKDIAQQIEGGRWKAEEILPSEHELTAQYGTSRETVRKALHMLAQNGYIQKIRGKGSVVLNREKMQFPVSGLVSFKELAQTLGKETKTTVHKFGLEPPSELIQKQLRANLDDDIWEVIRSRKIDGEHVILDKDYFFRKHVPHLTKEICENSIYEYIEGELGLSISYAQKEIVAEPCTDEDRELLDLRGYDHMVVVRNYVFLEDTSLFQYTESRHRLDKFRFVDFARRGK | not failed |
| MKVNPDFFPLTQMAQRFVDQLAQCRRLGLTVLEASEHHVLIELPYSTELIGYPDTGVIHGGVITTLMDTACGSAVVSAIFQKYQSLEISPTLDLRVDYMKPAQPHKSVYGFAECYKLSSNIAFTRAIAYQDSIDDPIAHAVGSFMRISPEMVGDAFRQALIGLEHHHHHH | not failed |
| MKVRNVIIGFMVASLTGCSMGHRDPVEIKQTLDKSINENGGLLLADLPASVQADLMPELNTPHVEVEEPVKRFRVRANGVGAKAFFTSLVKGTEYSVVIHPQVSGRITMNLSDVTMDDVLSSVEDLYGYDIVKAGKVLQVYPATIRTETIPVDYLQLTRKGRSLTTITTGSITNSDNNSSNNNNSSSKSNNNSSSSSSSATGGTEIETTSESDFWKELETAISVMIGNGADRSVVVSPQASVVTITASPDELRKVKQFLGTSHKRLQRQVILEAKLLEVTLSDGYQQGINWSNLTASLGGTDVVFGQTSGLVQGALPGMDTIGTLLGGQTNITVSDGNFQAVLSFMDTQGDLNVLSSPRVTAANNQKAVIKVGRDEYYVTEVSSVTGSGDNSNASPEVTLTPFFSGISLDVTPQIDDKGNVMLHVHPSVIDVENEVKEIDLGDVGGVLKLPLAKSSIRESDSVIRAKSGDVVVIGGLMKSQTVDQVSKVPLLGDVPALGHLFRNVSQLTQKTELVILLKPTVVGVDTWQEELERSRDLLQEWFPDELEHHHHHH | not failed |
| MKVTSVGAAMLLLIVGNLIAVLSDSLIKSVANEVPMFQFVFFRQISAVMFLLPVCLLAKQTNFMEGFKWHAVRAHVWLLGAVFMVMAISSLPLATANAIFYAAPLIMLPLAAIFFGEQLSKQSVAAAVMGFAGVLVIIRPDQIDWAAISAFVVALTLAINNLLIRKLPKNQSVMQTLLMTNLAGIPVALLLVLIEDQPWQWGAFPVAAGSSLFIMIYAATCVLAYRSIDSNKIASAEYSGLIGAVVVGFIWFGEIPDIFMAIGTVMIVVPLIWLSKRERRKQKEHAQLQAQKEHEQQQAHVA | failed |
| MKVVLAAIHPVPSPQAVPLANAFLKAYLGTDEELAARVAVTLCDFLRSTPADVCAAEILAHEPDAVGFSLYLWNTEESGRIAAELRRNRPGITIFAGGPQATADPLGTLTGGGYDFLILGEGEVPFLEVTARLADGRPFRGAPGTAWLDDGKLASRPQKPVALLDTIPSPFLSGIIEPGRYGGLLWQLSRGCDFACEYCFDYKGTKGVRRFSLERVDAELDFLVRHNVPQVFVLDSTFNVDAKRAKTILRMIRKRAPHIHFHFEVRSEFLDREMARLFAGITCSLQIGLQSADPAILKGIRRHFDPDDFRKRVALLNESGAVFGFDLIYGLPGDSLAGFRQSLDFALALYPNHLDIFPLAVLPGTPLAARAAQAGLDHLPAPPYALTATPTFPAPDMKRAARLAGACDIFYSRGKAVAWFNGVIAPLSLTPAEFLDAFGGWLARQGIEAREEALGDEAIWSLQRSFLAHIFADRRVRRLLPVALDLVDYHYHYAAALLAPPPELPTDRSLAGLNILDQVVCLAPSTRLARFSYEITDLLEAGNADLREICACFSPSPSWAVIYPRGNDIFTESLLESYFLLLEGLDGCCRAGDVVARLALSGEGAAEFLKFAAAEGIVTVRNCP | failed |
